Here are results for two molecules from patent US20070093415A1.

Assay [1] has as its target Aβ1-40 amyloid (amyloid form of the Aβ1-40 peptide). Kind of assay: ELISA on immobilized Aβ1-40 amyloid, streptavidin-alkaline phosphatase detection.
Assay [2] shares this target. Kind of assay: ELISA on immobilized Aβ1-40 amyloid, FIG. 5. For orientation: In an ELISA, binding on a coated surface is turned into a signal by an enzyme label.

No end group written: not given here. *: point of attachment. Biotin = O=C1N[C@H]2[C@H](CS[C@H]2CCCCC(=O)*)N1

B1: Biotin-… (peptide)
peptide: Biotin-AECDWGKGGRWRLWPGASGKTEACGP
modifications: also: flanking cysteines can form a disulfide bond
On to B1, for which the dissociation constant Kd (in general, the free concentration of one partner at which half of the binding sites on the other are occupied at equilibrium, for simple one-to-one binding) in assay [1] was 320 nM.

B2: Biotin-… (peptide)
peptide: Biotin-DWGKGGRWRLWPGASGKTEA
B2 showed a concentration below which no significant binding was seen in assay [2] of over 5 µM.
